Article PMC8287928

Target: SARS-CoV-2 spike pseudotyped lentivirus (PV) (SARS-CoV-2 (Wuhan-Hu-1)) (UniProt P0DTC2)
Assay: dot blot (filter binding)

Sequence	Kd [nM]
TTACGTCAAGGTGTCACTCCCACTTTCCGGTTAATTTATGCTCTACCCGTCCACCTACCGGAAGCATCTCTTTGGCGTG [MSA1]	0.0227
TTACGTCAAGGTGTCACTCCACGGGTTTGGCGTCGGGCCTGGCGGGGGGATAGTGCGGTGGAAGCATCTCTTTGGCGTG [MSA5]	0.0118
